Experimental data published in patent US20110200622A1 (SAMSUNG ELECTRONICS, published 2011).

molecular target: T1, human VEGF (R&D systems, Inc.; catalog #293-VE) (human, UniProt P15692-4 27-191); assay: phage ELISA on plate-immobilised human VEGF, anti-M13-HRP, OD450
T1 construct: Bought protein; It was biotinylated for bead panning and coated directly on the plate for the ELISAs; also called human vascular endothelial growth factor; human-derived vascular endothelial growth factor
Method: E. coli XL1-Blue was infected with each of the phage clones obtained from the biopanning process, and the cells were cultured at 37° C. for 14 hours to obtain a phage solution. The VEGF was added to a 96-well microtiter plate (Nunc), and maintained at 4° C. for 18 hours to immobilize the VEGF on a surface of the plate. The plate with the immobilized VEGF was blocked with skim milk at room temperature for 1 hour, and 100 μl of the phage solution was added to the plate. Then, the phage and the VEGF were incubated together at room temperature for two hours, and washed using a PBS solution containing 0.1% Tween-20. Subsequently, an anti-M13 antibody (GE Healthcare) specifically reactive to the phage and conjugated with horseradish peroxidase (HRP) was added to the resultant product and incubated with each other at room temperature for 1 hour. Then, the plate was washed twice with a PBS solution containing 0.1% Tween-20. Lastly, 100 μl of trimethylbenzidine (TMB) (SIGMA), an HRP substrate, was added to each well of the plate to induce a color reaction. The reaction was stopped by adding 50 μl of 5N H₂SO₄ solution. The OD₄₅₀ value was read on a plate reader (Molecular Devices). […] To determine the base sequence of polynucleotides encoding the polypeptides specifically binding to the VEGF obtained from single clones of the phages, a colony polymerase chain reaction (PCR) was performed using two different primer sets (primer set SEQ ID NOS: 47 and 48; and primer set SEQ ID NOS: 49 and 50). Each primer set was used according to the origin of the Dyax polypeptide library. […] The PCR was performed using a GeneAmp PCR system 9700 (Applied Biosystem), with the following PCR conditions: 30 cycles of 94° C. for 5 minutes, 94° C. for 1 minute, 60° C. for 1 minute, and 72° C. for 1.5 minutes; 72° C. for 10 minutes; and cooling to 4° C. Subsequently, polynucleotide fragments obtained by the PCR reaction were washed and then sequenced (Solgent).

T1 sequence (P15692 other isoform, or with tags, fused parts or gaps limits assumed): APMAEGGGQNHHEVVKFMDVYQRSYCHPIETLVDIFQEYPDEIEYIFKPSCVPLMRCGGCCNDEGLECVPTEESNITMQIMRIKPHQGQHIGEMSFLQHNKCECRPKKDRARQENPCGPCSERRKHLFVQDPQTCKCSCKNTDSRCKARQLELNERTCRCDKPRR

Q: Does RLFEMYPSLE (peptide, not shown: large carriers, Tested as a phage clone in phage ELISA) [polypeptide clone number 69, displayed on phage] bind?
A: Result: binds

Q: Does QMDRMFPHVG (peptide, not shown: large carriers, Tested as a phage clone in phage ELISA) [polypeptide clone number 65, displayed on phage] bind?
A: Result: binds

Q: Does YGYPWSGT (peptide, not shown: large carriers, Tested as a phage clone in phage ELISA) [polypeptide clone number 34, displayed on phage] bind?
A: Result: binds

Q: Does MKSAMYHDIR (peptide, not shown: large carriers, Tested as a phage clone in phage ELISA) [polypeptide clone number 82, displayed on phage] bind?
A: Result: binds

Q: Does PRLSMWQNME (peptide, not shown: large carriers, Tested as a phage clone in phage ELISA) [polypeptide clone number 63, displayed on phage] bind?
A: Result: binds

Q: Does YRGVWGGYF (peptide, not shown: large carriers, Tested as a phage clone in phage ELISA) [polypeptide clone number 42, displayed on phage] bind?
A: Result: binds

Q: Does SRFEMWNDIS (peptide, not shown: large carriers, Tested as a phage clone in phage ELISA) [polypeptide clone number 70, displayed on phage] bind?
A: Result: binds

Q: Does RMGPFGTTH (peptide, not shown: large carriers, Tested as a phage clone in phage ELISA) [polypeptide clone number 40, displayed on phage] bind?
A: Result: binds

Q: Does HDYAFYSAW (peptide, not shown: large carriers, Tested as a phage clone in phage ELISA) [polypeptide clone number 44, displayed on phage] bind?
A: Result: binds

Q: Does QRDEMYPHLN (peptide, not shown: large carriers, Tested as a phage clone in phage ELISA) [polypeptide clone number 76, displayed on phage] bind?
A: Result: binds

Q: Does PIGQRWNRLE (peptide, not shown: large carriers, Tested as a phage clone in phage ELISA) [polypeptide clone number 68, displayed on phage] bind?
A: Result: binds

Q: Does ERTEMFPSAS (peptide, not shown: large carriers, Tested as a phage clone in phage ELISA) [polypeptide clone number 73, displayed on phage] bind?
A: Result: binds

Q: Does QRDQQYKHMY (peptide, not shown: large carriers, Tested as a phage clone in phage ELISA) [polypeptide clone number 50, displayed on phage] bind?
A: Result: binds

Q: Does PRFEMWHDDK (peptide, not shown: large carriers, Tested as a phage clone in phage ELISA) [polypeptide clone number 55, displayed on phage] bind?
A: Result: binds

Q: Does DFLKMYRDEK (peptide, not shown: large carriers, Tested as a phage clone in phage ELISA) [polypeptide clone number 52, displayed on phage] bind?
A: Result: binds

Q: Does FDKYYRDWFI (peptide, not shown: large carriers, Tested as a phage clone in phage ELISA) [polypeptide clone number 83, displayed on phage] bind?
A: Result: binds

Q: Does PHQEMWQFES (peptide, not shown: large carriers, Tested as a phage clone in phage ELISA) [polypeptide clone number 78, displayed on phage] bind?
A: Result: binds

Q: Does DRFSMWKNLE (peptide, not shown: large carriers, Tested as a phage clone in phage ELISA) [polypeptide clone number 66, displayed on phage] bind?
A: Result: binds

Q: Does MHRPWPWDMF (peptide, not shown: large carriers, Tested as a phage clone in phage ELISA) [polypeptide clone number 56, displayed on phage] bind?
A: Result: binds

Q: Does DRYSQYQSPM (peptide, not shown: large carriers, Tested as a phage clone in phage ELISA) [polypeptide clone number 16, displayed on phage] bind?
A: Result: binds

Q: Does EDYRFYSVW (peptide, not shown: large carriers, Tested as a phage clone in phage ELISA) [polypeptide clone number 13, displayed on phage] bind?
A: Result: binds
